According to US20220177604A1 (ARGENX, published 2022):
Positions count from the first letter of the chain named.

How the values were obtained:
[1] = target: T1, human immunoglobulin E (hIgE) (human, UniProt P01854-1 1-428); experiment: SPR competition
T1 construct: also called human IgE; Native IgE (Abcam)

[2] = target: T1, human immunoglobulin E (hIgE); experiment: SPR competition; remark: listed apart in the source
Description: (§1) For this purpose, a competition approach was set-up. […] The assay was performed in HBS-EP pH7.4 or HBS-EP pH 5.5. Raw data were analyzed via BIA evaluation software with a blank subtraction (2-1). […] The IC50 values of each compound were calculated with a non-linear regression (log(agonist) vs. response Variable slope (four parameters)).

[3] = target: T1, human immunoglobulin E (hIgE); experiment: competition ELISA
Description: (§2) The IC50 values of each compound were calculated with a non-linear regression (log(agonist) vs. response Variable slope (four parameters)).

[4] = target: T1, human immunoglobulin E (hIgE); experiment: SPR competition, hIgE over hFcεRIα chip, pH 5.5
Description: (§3) The assay was performed in HBS-EP pH7.4 or HBS-EP pH 5.5. Raw data were analyzed via BIA evaluation software with a blank subtraction (2-1). […] The IC50 values of each compound were calculated with a non-linear regression (log(agonist) vs. response Variable slope (four parameters)).
(§4) Raw data were analyzed via BIA evaluation software with a blank subtraction (2-1). […] The IC50 values of each compound, calculated with a non-linear regression (log(agonist) vs. response Variable slope (four parameters)).

[5] = target: T1, human immunoglobulin E (hIgE); experiment: SPR competition, hIgE over hFcεRIα chip, pH 7.4
Description: as §3, §4

[6] = target: T1, human immunoglobulin E (hIgE); experiment: SPR competition, hIgE + mAb over hFcεRIα chip, pH 7.4
Description: as §1

[7] = target: T1, human immunoglobulin E (hIgE); experiment: competition ELISA, biotin-hIgE to coated hFcεRIα, pH 6
Description: as §2

[8] = target: T1, human immunoglobulin E (hIgE); experiment: competition ELISA, biotin-hIgE to coated hFcεRIα, pH 7.4
Description: as §2

[9] = target: T1, human immunoglobulin E (hIgE); experiment: SPR competition, hIgE + mAb over hFcεRIα chip, pH 6 (text: pH 5.5)
Description: as §1

[10] = target: T2, recombinant Motavizumab human IgE (rMota-hIgE) (human, UniProt P01854 1-428); experiment: hIgE binding ELISA
T2 construct: also called Recombinant IgE (argenx)
Description: The ratio of OD450 measured at pH 7.4 versus OD450 measured at pH 6 was calculated for each of the CL-2C antibodies.

[11] = target: T2, recombinant Motavizumab human IgE …; experiment: hIgE binding ELISA; remark: listed apart in the source
Description: (§5) Briefly a Maxisorp plate was coated with recombinant human respiratory syncytial virus protein F (RSV-F) (0.5 μg/mL), then blocked with PBS with 3% BSA and 0.05% Tween. […] After several washing steps at pH 7.4 or pH 5.5, detection of the bound mAbs was carried out with an anti-human Fc-HRP antibody.

[12] = target: T1, human immunoglobulin E (hIgE); experiment: SPR (Biacore) on hIgE
Description: The ratio of KD measured at pH 5.5 versus KD measured at pH 7.4 was calculated for each of the CL-2C antibodies.

[13] = target: T2, recombinant Motavizumab human IgE …; experiment: hIgE binding ELISA, pH 5.5
Description: as §5

[14] = target: T2, recombinant Motavizumab human IgE …; experiment: hIgE binding ELISA, pH 7.4
Description: as §5

[15] = target: T1, human immunoglobulin E (hIgE); experiment: competition ELISA, hIgE to hFcεRIα
[16] = target: T2, recombinant Motavizumab human IgE …; experiment: ELISA: rMota-hIgE captured on coated RSV-F, washes at pH 5.5, anti-human Fc-HRP; EC50 unit inferred, x axis in pM
Description: as §5

[17] = target: T2, recombinant Motavizumab human IgE …; experiment: ELISA: rMota-hIgE captured on coated RSV-F, washes at pH 7.4, anti-human Fc-HRP; EC50 unit inferred, x axis in pM
Description: as §5

[18] = target: T2, recombinant Motavizumab human IgE …; experiment: ELISA: rMota-hIgE captured on coated RSV-F, washes at pH 5.5, anti-human Fc-HRP; EC50 unit inferred, x axis in pM; remark: listed apart in the source
Description: as §5

[19] = target: T2, recombinant Motavizumab human IgE …; experiment: ELISA: rMota-hIgE captured on coated RSV-F, washes at pH 7.4, anti-human Fc-HRP; EC50 unit inferred, x axis in pM; remark: listed apart in the source
Description: as §5

[20] = target: T1, human immunoglobulin E (hIgE); experiment: SPR, Fab periplasmic extract, pH 7.4
[21] = target: T2, recombinant Motavizumab human IgE …; experiment: SPR, Fab periplasmic extract, pH 7.4
[22] = target: T2, recombinant Motavizumab human IgE …; experiment: ELISA: rMota-hIgE captured on coated RSV-F, washes at pH 7.4, anti-human Fc-HRP; EC50 unit inferred, x axis in pM; remark: listed apart in the source
Description: as §5

[23] = target: T2, recombinant Motavizumab human IgE …; experiment: ELISA: rMota-hIgE captured on coated RSV-F, washes at pH 5.5, anti-human Fc-HRP; EC50 unit inferred, x axis in pM; curve reaches only OD450 about 0.85 at about 670 pM
Description: as §5

[24] = target: T2, recombinant Motavizumab human IgE …; experiment: ELISA: rMota-hIgE captured on coated RSV-F, washes at pH 5.5, anti-human Fc-HRP; EC50 unit inferred, x axis in pM; remark: listed apart in the source
Description: as §5

T2 sequence (P01854 other isoform, or with tags, fused parts or gaps limits assumed, form in doubt): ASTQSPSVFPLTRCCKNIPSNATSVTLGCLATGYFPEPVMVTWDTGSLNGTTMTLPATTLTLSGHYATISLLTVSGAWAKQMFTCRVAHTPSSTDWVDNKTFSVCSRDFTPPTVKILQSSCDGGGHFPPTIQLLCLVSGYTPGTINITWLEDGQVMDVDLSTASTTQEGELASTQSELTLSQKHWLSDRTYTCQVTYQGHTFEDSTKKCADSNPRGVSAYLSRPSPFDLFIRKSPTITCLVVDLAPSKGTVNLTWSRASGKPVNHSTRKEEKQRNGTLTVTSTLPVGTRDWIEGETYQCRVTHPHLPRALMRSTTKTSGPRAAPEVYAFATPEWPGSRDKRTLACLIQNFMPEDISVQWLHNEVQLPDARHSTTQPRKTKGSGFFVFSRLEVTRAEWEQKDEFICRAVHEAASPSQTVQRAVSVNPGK
T1 sequence (P01854 whole entry): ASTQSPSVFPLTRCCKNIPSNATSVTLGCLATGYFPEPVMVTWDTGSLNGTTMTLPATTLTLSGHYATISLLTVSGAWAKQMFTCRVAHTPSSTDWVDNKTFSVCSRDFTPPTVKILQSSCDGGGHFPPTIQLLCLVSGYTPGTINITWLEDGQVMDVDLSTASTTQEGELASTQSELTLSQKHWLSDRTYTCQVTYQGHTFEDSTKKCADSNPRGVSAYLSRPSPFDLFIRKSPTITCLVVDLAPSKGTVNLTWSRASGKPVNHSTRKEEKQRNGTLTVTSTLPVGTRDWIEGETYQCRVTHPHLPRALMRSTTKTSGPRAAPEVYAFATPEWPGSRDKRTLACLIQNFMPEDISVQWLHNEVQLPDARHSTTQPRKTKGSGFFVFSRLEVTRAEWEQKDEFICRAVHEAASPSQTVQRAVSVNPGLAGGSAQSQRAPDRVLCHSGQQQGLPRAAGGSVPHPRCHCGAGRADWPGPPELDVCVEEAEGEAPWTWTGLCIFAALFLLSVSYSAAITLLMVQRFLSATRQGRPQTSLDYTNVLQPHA

B1: 3D1 human IgG1 mAb (antibody, V domains shown)
VH: QLQVVESGGGLVQPGGSLRLSCAASGFTFSSYYMSWVRQAPGKGLEWVSSIYSDGRGSKTFYADSVKGRFTISRDNAKNTLYLQMNSLKSEDTAVYFCAKDLLVAARGSMDYWGQGTQVTVSS
VL: NFMLTQPSAVSVSLEQTARITCQGGTLGSYGAHWYQQKPGQAPVLLIYGDNSRPSGIPERFSGTRSGGTATLTISGAQAEDEADYYCQSFDYSGNAVFGGGTHLTVL
notes: human IgG1 and human light chain constant domains; also called clone 3D1; WT 3D1
[1]
  ratio between IC50 at pH5.5 and pH 7.4: 8.6
[2]
  Ratio pH 6/7.4 (IC50): 0.8
[3]
  Ratio pH 6/7.4 (IC50): 1.3
[4]
  IC50: 11.7 µg/mL
[5]
  IC50: 1.36 µg/mL
[6]
  IC50: 5.31 nM
[7]
  IC50: 118 nM
[8]
  IC50: 90.3 nM
[9]
  IC50: 4.44 nM

B2: CL-2C mAb 37 (antibody, V domains shown)
VH: QVQLVQSGAEVMKPGSSVKVSCKASGYTFSWYHLEWVRQAPGHGLEWMGEIDPGTFTTNYNEKFKARVTFTADTSTSTAYMELSSLRSEDTAVYYCARFSHFSGSNHDYFDYWGQGTLVTVSS
VL: EIVMTQSPATLSVSPGERATLSCRASQSIGTNIHWYQQKPGQAPRLLIYYASESISGIPARFSGSGSGTEFTLTISSLQSEDFAVYYCQQSWSWPTTFGGGTKVEIK
notes: also called VKWT + VH33H100CH
[10]
  Ratio OD450 pH 7.4/pH 6: 10.3
[11]
  Ratio EC50 pH 5.5/7.4: 2.5
  Ratio EC50 pH 7.4/5.5: 0.4
[12]
  KD Ratio pH 5.5/pH 7.4: 11.1
[13]
  EC50: 0.0373 µg/mL
[14]
  EC50: 0.0149 µg/mL
[15]
  IC50: 0.483 nM

B3: 18B9His-hIgG1-WT (antibody, V domains shown)
VH: QVQLVESGGGLVQPGGSLRLSCAASGFTFSSYVMSWVRQAPGKGLEWVSSIYSDGSHTYYADSVKGRFTISRDNAKNTLYLQMNSLKSEDTAVYYCAKNLEHYSGSYYYTDPRYDYWGQGTQVTVSS
VL: SSALTQPSALSVTLGQTAKITCQGGSLGSSYVHWYQQKPGQAPVLVIHDGDSRPSGIPERFSGSSSGGTATLTISGAQAEDEDDYYCQSADSSGNAVFGGGTHLTVL
notes: also called VL18B9_Y49H; 18B9-His-WT
[16]
  EC50: 0.115 nM
[17]
  EC50: 0.142 nM

B4: 13E4-hIgG1-WT (antibody, V domains shown)
VH: ELQLVESGGGLVQPGGSLRLSCAASGFTFSSYVMSWVRQAPGKGLEWVSSIYHDGSHTYYADFVKGRFTISRDNAKNTLYLQMNSLKSEDTAVYYCASGTSYSGSYYYTDPFFGSWGQGTQVTVSS
VL: B3 VL with S1H, L4V, S30N, V32A, H33Y, H48Y, G50D, D83G, S93N
notes: also called clone 13E4
[18]
  EC50: 0.0938 nM
[19]
  EC50: 0.0913 nM

B5: 13E4-hIgG1-ABDEG (antibody, V domains shown)
VH: B4 VH
VL: B3 VL with S1H, L4V, S30N, V32A, H33Y, H48Y, G50D, D83G, S93N
notes: human IgG1 heavy chain with ABDEG mutations (pUPEX32a); also called 13E4-ABDEG
[18]
  EC50: 0.122 nM
[19]
  EC50: 0.11 nM

B6: 18B9His-hIgG1-ABDEG (antibody, V domains shown)
VH: B3 VH
VL: B3 VL
notes: also called 18B9His ABDEG; 18B9-hIgG1-ABDEG
[16]
  EC50: 0.149 nM
[17]
  EC50: 0.119 nM

B7: omalizumab variant Fab VH15 / VL3 (Fab, V domains shown)
VH: EVQLVESGGGLVQPGGSLRLSCAVSGYSITSGHRWEWIRQAPGKGLEWVASIHYDGSTNYNPSVKGRITISRDDSKNTFYLQMNSLRAEDTAVYYCARATHYFGHWHFAVWGQGTLVTVSS
VL: DIQLTQSPSSLSASVGDRVTITCRASQSVDYDGDSYMNWYQQKPGKAPKLLIEWGSYLRSGVPSRFSGSGSGTDFTLTISSLQPEDFATYYCQQNAEDPYTFGQGTKVEIK
[20]
  Off-rate improvement ratio (against VHWT VLWT): 14.8
  R0 (RU): 235 RU
  koff: 0.00035 s⁻¹
[21]
  Off-rate improvement ratio (against VHWT VLWT): 18
  R0 (RU): 285 RU
  koff: 0.000269 s⁻¹

B8: 18E2His2-hIgG1-WT (antibody, V domains shown)
VH: B4 VH with E1Q, S35H
VL: NFMLTQPSALSVTLGQTARITCQGDRLGSRYIHWYQQKPPQAPVLVIHDDDRRPSGIPERFSGSSSGGTATLTISGAQAEDDGDYYCQSADSSGNPVFGGGTHLTVL
[22]
  EC50: 0.365 nM
[23]
  EC50: ~4210 nM

B9: 18E2His2-hIgG1-ABDEG (antibody, V domains shown)
VH: B4 VH with E1Q, S35H
VL: B8 VL
notes: human IgG1 heavy chain with ABDEG mutations (pUPEX32a); also called 18E2His2-ABDEG
[24]
  EC50: 0.616 nM
[22]
  EC50: 0.121 nM
